Test results: the supplement of paper PMC9112550, “Optimization of the antimicrobial peptide Bac7 by deep mutational scanning” (BMC Biology, 2022)

Test system: Escherichia coli TOP10
Test: shrunken log2 fold change of peptide-encoding DNA abundance (4.5 h post-induction vs induction); higher = less antimicrobial activity (less host growth inhibition)
Conditions: time post-induction: 4.5 h; library: site-saturation at positions 5, 18, 19, 20
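Note: peptides expressed intracellularly from a pBAD plasmid library in pooled LB shake-flask culture, induced with 0.3% L-arabinose, DNA abundance read by NGS, three biological replicates, DESeq2 with apeglm shrinkage.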

| Sequence | shrunken log2 fold change |
| --- | --- |
| RRIRTRPPRLPRPRPRPKDFPRP | -0.00116 |
| RRIRIRPPRLPRPRPRPDLWPRP | 0.078 |
| RRIRTRPPRLPRPRPRPDHRPRP | 0.0733 |
| RRIRNRPPRLPRPRPRPPSAPRP | 0.726 |
| RRIRKRPPRLPRPRPRPYFCPRP | -0.288 |
| RRIRGRPPRLPRPRPRPVWVPRP | 0.509 |
| RRIRNRPPRLPRPRPRPIQGPRP | -0.105 |
| RRIRDRPPRLPRPRPRPHRPPRP | 0.0369 |
| RRIRGRPPRLPRPRPRPPLPPRP | 1.01 |
| RRIRPRPPRLPRPRPRPLAVPRP | 0.161 |
| RRIRPRPPRLPRPRPRPCIPPRP | -0.556 |
| RRIRCRPPRLPRPRPRPAPRPRP | 0.915 |
| RRIRQRPPRLPRPRPRPCAFPRP | -0.254 |
| RRIRVRPPRLPRPRPRPEKQPRP | 0.101 |
| RRIRMRPPRLPRPRPRPFCCPRP | 0.534 |
| RRIRSRPPRLPRPRPRPSVNPRP | -0.119 |
| RRIRVRPPRLPRPRPRPGWTPRP | 0.202 |
| RRIRCRPPRLPRPRPRPNDFPRP | -0.241 |
| RRIRTRPPRLPRPRPRPPHDPRP | 0.275 |
| RRIRERPPRLPRPRPRPPWIPRP | -0.042 |
| RRIRARPPRLPRPRPRPQDRPRP | -0.139 |
| RRIRERPPRLPRPRPRPANLPRP | -0.254 |
| RRIRSRPPRLPRPRPRPELIPRP | -0.123 |
| RRIRNRPPRLPRPRPRPTFSPRP | -0.269 |
| RRIRSRPPRLPRPRPRPTMIPRP | -0.163 |

| Sequence | shrunken log2 fold change |
| --- | --- |
| RRIRPRPPRLPRPRPRPTMPPRP | -0.144 |
| RRIRDRPPRLPRPRPRPVKAPRP | 0.026 |
| RRIRNRPPRLPRPRPRPVRYPRP | -0.0196 |
| RRIRHRPPRLPRPRPRPAGPPRP | 0.056 |
| RRIRFRPPRLPRPRPRPSICPRP | -0.636 |
| RRIRYRPPRLPRPRPRPDVDPRP | -0.0562 |
| RRIRERPPRLPRPRPRPCHSPRP | -0.0339 |
| RRIRMRPPRLPRPRPRPIMLPRP | -0.351 |
| RRIRDRPPRLPRPRPRPHNHPRP | -0.612 |
| RRIRGRPPRLPRPRPRPLGSPRP | 0.338 |
| RRIRIRPPRLPRPRPRPAYHPRP | -0.639 |
| RRIRQRPPRLPRPRPRPDDIPRP | -0.0246 |
| RRIRMRPPRLPRPRPRPDFQPRP | -0.0477 |
| RRIRGRPPRLPRPRPRPIMGPRP | 0.0308 |
| RRIRNRPPRLPRPRPRPKNAPRP | -0.0561 |
| RRIRERPPRLPRPRPRPKGQPRP | 0.132 |
| RRIRGRPPRLPRPRPRPRPFPRP | 0.889 |
| RRIRMRPPRLPRPRPRPHPMPRP | 2.74 |
| RRIRWRPPRLPRPRPRPEDAPRP | 0.00499 |
| RRIRWRPPRLPRPRPRPNHGPRP | -0.16 |
| RRIRSRPPRLPRPRPRPKPRPRP | 0.594 |
| RRIRIRPPRLPRPRPRPEIGPRP | -0.0838 |
| RRIRTRPPRLPRPRPRPSQIPRP | -0.0567 |
| RRIRERPPRLPRPRPRPMYVPRP | -0.0843 |
| RRIRSRPPRLPRPRPRPQWGPRP | -0.0633 |

| Sequence | shrunken log2 fold change |
| --- | --- |
| RRIRLRPPRLPRPRPRPHVCPRP | -0.247 |
| RRIRDRPPRLPRPRPRPAQVPRP | -0.286 |
| RRIRWRPPRLPRPRPRPNIGPRP | 0.138 |
| RRIRARPPRLPRPRPRPMHKPRP | 0.221 |
| RRIRLRPPRLPRPRPRPVTGPRP | -0.121 |
| RRIRWRPPRLPRPRPRPTTGPRP | 0.384 |
| RRIRIRPPRLPRPRPRPWDGPRP | -0.094 |
| RRIRVRPPRLPRPRPRPLQWPRP | 0.209 |
| RRIRFRPPRLPRPRPRPPQDPRP | 0.303 |
| RRIRCRPPRLPRPRPRPNEGPRP | -0.1 |
| RRIRYRPPRLPRPRPRPTFTPRP | -0.566 |
| RRIRERPPRLPRPRPRPGTSPRP | 1.87 |
| RRIRARPPRLPRPRPRPCVNPRP | 0.194 |
| RRIRPRPPRLPRPRPRPPMMPRP | 0.0805 |
| RRIRQRPPRLPRPRPRPAACPRP | 0.183 |
| RRIRGRPPRLPRPRPRPNCYPRP | 0.183 |
| RRIRLRPPRLPRPRPRPYVHPRP | -0.783 |
| RRIRCRPPRLPRPRPRPRIYPRP | -0.0107 |
| RRIRHRPPRLPRPRPRPCKLPRP | -0.714 |
| RRIRIRPPRLPRPRPRPWEKPRP | -0.00992 |
| RRIRHRPPRLPRPRPRPNHFPRP | -0.262 |
| RRIRGRPPRLPRPRPRPKHSPRP | 0.209 |
| RRIRNRPPRLPRPRPRPLLGPRP | 0.232 |
| RRIRYRPPRLPRPRPRPYDYPRP | -0.145 |
| RRIRDRPPRLPRPRPRPAVEPRP | 0.845 |
